The text below walks through data of patent US20140038292.

In the series the test system is T1, Tol1 transposase (851 aa) (Oryzias latipes).
T1 sequence: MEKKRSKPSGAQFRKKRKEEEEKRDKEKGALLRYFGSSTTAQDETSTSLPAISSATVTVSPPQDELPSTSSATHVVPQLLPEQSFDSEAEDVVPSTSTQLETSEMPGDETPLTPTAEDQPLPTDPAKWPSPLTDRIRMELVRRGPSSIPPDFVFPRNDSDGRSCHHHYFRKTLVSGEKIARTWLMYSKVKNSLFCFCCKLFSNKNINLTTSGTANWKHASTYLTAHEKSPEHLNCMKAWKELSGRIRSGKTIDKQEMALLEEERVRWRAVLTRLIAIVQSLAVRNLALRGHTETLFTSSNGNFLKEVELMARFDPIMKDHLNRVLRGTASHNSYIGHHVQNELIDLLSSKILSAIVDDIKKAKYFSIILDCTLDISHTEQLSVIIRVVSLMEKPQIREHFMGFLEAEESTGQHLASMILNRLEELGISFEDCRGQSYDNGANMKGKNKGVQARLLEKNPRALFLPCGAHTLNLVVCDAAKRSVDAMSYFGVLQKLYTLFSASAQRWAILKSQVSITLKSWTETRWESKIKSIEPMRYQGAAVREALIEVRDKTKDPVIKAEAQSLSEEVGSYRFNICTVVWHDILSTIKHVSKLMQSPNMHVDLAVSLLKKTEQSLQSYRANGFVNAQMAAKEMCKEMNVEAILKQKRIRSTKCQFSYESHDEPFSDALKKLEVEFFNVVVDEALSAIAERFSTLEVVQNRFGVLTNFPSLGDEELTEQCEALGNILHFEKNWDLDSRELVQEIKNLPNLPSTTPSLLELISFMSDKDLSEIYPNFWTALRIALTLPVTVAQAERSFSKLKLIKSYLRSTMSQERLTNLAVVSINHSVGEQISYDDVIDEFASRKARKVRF
Nature of the series: cell_activity. The conditions noted are these: HeLa, donor 200 ng, helper 800 ng; 8 bp TSD at insertions.

“Tol1-tyr element (1855 bp), donor plasmid” yielded an activity (net G418-resistant colonies) of 3660.
